# Laboratory results reported in the nanobody polyreactivity screen of Harvey et al. (2022).
# Experiment: yeast display, Sf9 membrane polyspecificity reagent, FACS + sequencing; frameworks hold sequencing errors
# Method in brief: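 Galactose-induced (36–48 hours) yeast carrying a synthetic nanobody display library were exposed to 10% biotinylated, detergent-solubilized Sf9 membrane reagent at 4 °C for 1 hour. FACS followed streptavidin microbead enrichment, using low and high (top ~1%) gates for expression (anti-HA) and reagent binding (streptavidin). Colony PCR, MiSeq 2 × 250 sequencing and CDR-length filtering followed. Labels for polyreactivity reflect the gate of origin.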
row,Sequence,polyreactivity (PSR sort gate)
1,QVQLVESGGGLVQAGGSLRLSCAASGSIFSAYVMGWYRQAPGKERELVAAITRSGGSTYYADSVKGRFTISRDNAKNTVYLQMNSLKPEDTAVYYCAVDYLLHYYSYIEDYWGQGTQVTVSS,low polyreactivity
2,QVQLVESGGGLVQAGGSLRLSCAASGSIFSCYTMGWYRQAPGKERELVAASTTYADSVKGRFTISRDNAKNTVYLQMNSLKPEDTAVSYCATRHPARRDYWGQGTQVTVSS,low polyreactivity
3,QVQLVESGGGLVQAGGSLRLSCAASGSIFSENAMGWYRQAPGKERELVAAITGGASTNYADSVKGRFTISRDNAKNTVYLQMNSLKPEDNAVYYCNTGGPRGTTYDYWGQGTQVTVSS,low polyreactivity
4,QVQLVESGGGLVQAGGSLRLSCAASGSIFSEYAMGWYRQAPGKERELVAAISKSTGRTYYADSVKGRFTISRDNAKNTVYLQMNSLKPEDTAVYYCNAVRRAFIASYDYWGQGTQVTVSS,high polyreactivity
5,QVQLVESGGGLVQAGGSLRLSCAASGSIFSFYAMGWYRQAPGKEREFVAAITISDDSTYYADTVKGRFTISRDNAKNTVYLQMNSLNPEDTAVYYCNDRYLSWYFKYLYDYWGQGTQVTVSS,low polyreactivity
6,QVQLVESGGGLVQAGGSLRLSCAASGSIFSGNAMGWYRQAPGKERELVAAITSSGGSTYYADSVKGRFTISRDNAKNTVYLQMNSLKPEDTAVYYCAKDYYSKHFPIYDYWGQGTQVTVSS,low polyreactivity
7,QVQLVESGGGLVQAGGSLRLSCAASGSIFSGNAMGWYRQAPGKERELVADITFSGSSTYADSVKGRFTISRDNAKNTVYLQMNSLKPEDTAVYYCAKKRPGFLRYGSIGEFQYDYWGQGTQVTVSS,low polyreactivity
8,QVQLVESGGGLVQAGGSLRLSCAASGSIFSGNEMGWYRQAPGKDSELVATISWSGGSTNYADSVKGGFTISRDNAKNTVYLQMNSLKPEDTSVYYCAAVPGWVRQADGWVLSLLDYWGQGTQVTVSS,low polyreactivity
9,QVQLVESGGGLVQAGGSLRLSCAASGSIFSGNTMGCYRQAPGKERELVAAISGRGSNTYYADSVKGRFTISRDNAKNTVYLQMNSLKPEDTAVYYCAGPWVVRRTAYDYWGQGTQVTVSS,high polyreactivity
10,QVQLVESGGGLVQAGGSLRLSCAASGSIFSGYAMGWYRQAPGKERELVAAITWRAASTYYADSVKGRFTISRDNAKNTVYLQMNSLKPEDTAVYYCAKEGWPKPAFYYWGQGTQVTVSS,low polyreactivity
11,QVQLVESGGGLVQAGGSLRLSCAASGSIFSGYTMGWYRQAPGKERELVAAISSDGSTTYADSVKGRFTISRDNAKNTVYLQMNSLKPEDTAVYYCAAYPYWDGSYGGYDYWGQGTQVTVSS,low polyreactivity
12,QVQLVESGGGLVQAGGSLRLSCAASGSIFSGYVKGWYRQAPGKDMELVAAISGSGGSTYYADSVKGRFTISRDNAKNTVYFQMNSLKPEDTAVYYCNVDRSPTHIVGYGYWGQGTQVTVSS,low polyreactivity
13,QVQLVESGGGLVQAGGSLRLSCAASGSIFSGYVMGWYRQAPGKERELVAAISGSGGSTYYADSVKGRFTISRDNAKNTVYLQMNSLNPEDTAVYYCNKGLSRSYWWVDYWGQGTQVTVSS,low polyreactivity
14,QVQLVESGGGLVQAGGSLRLSCAASGSIFSGYVMGWYRQAPGKERELVAAISSGGSTYYADSVKGRFTISRDNAKNTVYLQMNSLKPEDTAVYYCAARSRKYGLLFYYWGQGTQVTVSS,high polyreactivity
15,QVQLVESGGGLVQAGGSLRLSCAASGSIFSHNAMGWYRQAPGKERELVASMTGSGGSTYYADSVKGRFTISRDNAKNTVYLHMNSLKPEDTAVYYCAADSYGRSETEDDYWGQGTQVTVSS,low polyreactivity
16,QVQLVESGGGLVQAGGSLRLSCAASGSIFSHYAMGWYRQAPGKERELVAAISRSGGSTYYADSVKGRFTISRDNAKNTVYLQMNSLKPEDTAVYYCAKEGDSGYWFDYWGQGTQVTVSS,low polyreactivity
17,QVQLVESGGGLVQAGGSLRLSCAASGSIFSINAMGWYRQAPGKERELVAVISWIGGNTYYADSVKGRFTISRDNAKNTVYLKMNSLKPEDTAVYYCAVATGPVSYRRYYCGQGTQVTVSS,high polyreactivity
18,QVQLVESGGGLVQAGGSLRLSCAASGSIFSKNAMGWYRQAAGKEWEWVAAISRSAGSTYYADSVKGRFTISRDNAKNTVYLQMNSLKPEDTAVYYCAAEGYRWVTAYYDYDEDYWGQGTQVTVSS,low polyreactivity
19,QVQLVESGGGLVQAGGSLRLSCAASGSIFSKYAMGWYRQAPGKERELVAAIDWSGGSTYYADSVKGRFTISRDNAKNTVYLQMNSLKPEDTAVYYCNAEYVVADYGYYTIEFDYWGQGTQVTVSS,low polyreactivity
20,QVQLVESGGGLVQAGGSLRLSCAASGSIFSKYTMGWYRQAPGKERELVAAIRGSGVRTYYADSVKGRFTISRDNAKNTVYLQMNSLKPEDTAVYYCAKVVYRGKVALWISSTAGSDYWGQGTQVTVSS,low polyreactivity
21,QVQLVESGGGLVQAGGSLRLSCAASGSIFSLYAMGWYRQAPGKERELVAAISRGGSTNYADSVKGRFTISRDNAKNTVYLQMNSLKPEDTAVYYCNAGFGVRRKHITFYTWYDYWGQGTQVTVSS,low polyreactivity
22,QVQLVESGGGLVQAGGSLRLSCAASGSIFSLYAMGWYRQAPGKERELVAAISSSGTSTYYADSVKGRFTISRDNAKNTVYLQMNSLKPEDTAVYYCNAYREFDWGQGTQVTVSS,high polyreactivity

row,Sequence,polyreactivity (PSR sort gate)
1,QVQLVESGGGLVQAGGSLRLSCAASGSIFSLYAMGWYRQAPGKERELVTAITSGGRTKYADSVKGRFTISRDNAKNTVYLQMNSLKPEDTAVYYCAARDDSEKRYLTQYAYNYWGQGTQVTVSS,low polyreactivity
2,QVQLVESGGGLVQAGGSLRLSCAASGSIFSPNAMGWYRQAPGKEMELVPRITSGGSTFYADSVKGRFTISRDYAKNTVYLQMYSLKPEDTAVSYCAAVQTRYTSVFSSTRYDYWGQGTQVTVSS,low polyreactivity
3,QVQLVESGGGLVQAGGSLRLSCAASGSIFSPNAMGWYRQAPGKERELVAAITDSGGSTYYADSVKGRFTISRDNAKNTVYLQMNSLKPEDTAVYYCAVATGLLYKSHGYWGQATQVTVSS,low polyreactivity
4,QVQLVESGGGLVQAGGSLRLSCAASGSIFSPNAMGWYRQAPGKERELVAAITRGGSTYYADSVKGRFTISRDNAKKTVYLQMNSLKPEDTAVYYCAKRSKQFSTQYLYGYWGQGTQVTVSS,low polyreactivity
5,QVQLVESGGGLVQAGGSLRLSCAASGSIFSPNDMGWYRQAPGKERELVAAITSAGSTYYADSVKGRFTISRDNAKNTVYLQMNSLKPEDTAVYYCSASYISVTDYAYFPLWYGYWGQGTQVTVSS,low polyreactivity
6,QVQLVESGGGLVQAGGSLRLSCAASGSIFSPNDMGWYRQAPGKERELVAAITTAGSTYYADSVKGRFTISRDTAKNTVYLQMNSLKPEDTAVYYCAATYISVTDYAYFPLWYGYWGEGTQVTVSS,low polyreactivity
7,QVQLVESGGGLVQAGGSLRLSCAASGSIFSPYAMGWYRQAPGKEREFVAAITWSDGGTYADSVKGRFTISRDNAKNTVYLQMNSRKPEDTAVYYCAAKLASYLVTGMDYWGQGTQVTVSS,low polyreactivity
8,QVQLVESGGGLVQAGGSLRLSCAASGSIFSPYAMGWYRQAPGKERELVAAISYGVGNTYYADSVKGRFTISRDNAKNTVYLQMNSLKPEDTAVYYCAAEEYDYVYPHYFTKGYYWGQGTQVTVSS,high polyreactivity
9,QVQLVESGGGLVQAGGSLRLSCAASGSIFSQKAMVWYRQAPGKERELVASISTGDSSTYADSVKGRFTISRDNAKNTVYLQMNSLKREDTAVYYCNAYRYNALPWRYVGYDYWGQGTQVTVSS,low polyreactivity
10,QVQLVESGGGLVQAGGSLRLSCAASGSIFSQNAIGWYRQAPGKEMELVAAISSSGTRTYYADSVKGRFTISRDHAKNTVYLQMNSLKPEDTAVYYCNKVLFRPRFFVRSDYWGQGTQVSVSS,high polyreactivity
11,QVQLVESGGGLVQAGGSLRLSCAASGSIFSQYAMGWYRQAPGKERELVAAISRSGGTTYYADSVKGRFTISRDNAKNTVYLQMNSLKPEDTAVYYCAADLKARRGSYDRFYYWGQGTQVTVSS,high polyreactivity
12,QVQLVESGGGLVQAGGSLRLSCAASGSIFSRNAKGWYRQAPGKERELVAAISRGANTYYADSVKGRLTISRDNAKNSVYLQMNSLKPEDTAVYYCAARIYKFPYTYDYWGQGTQVTVSS,high polyreactivity
13,QVQLVESGGGLVQAGGSLRLSCAASGSIFSRNAMGWSRPAPGKERELVAAISWSGGRKYYADSVKGRFTISRDNAKNTVYLQMNSLKPEDTAVYYCAAKVGYLAAYGRIRVYRYGYWGQGTQVTVSS,high polyreactivity
14,QVQLVESGGGLVQAGGSLRLSCAASGSIFSRYAMGWYRQAPGKESELVAASRWTDSSTYYADSVKGRFTISRDNAKNTVYLQMNSLKPEDTAVYYCAKVYERGSNKVDYWGQGTQVTVSS,low polyreactivity
15,QVQLVESGGGLVQAGGSLRLSCAASGSIFSRYAMGWYRQAPGTERELVAAITSSGTSTYYADSVKGRFTISRDNAKNTVYLQMNSLKPEDTAVYYCAAAFRQRTSRYDYWGQGTQVTVSS,high polyreactivity
16,QVQLVESGGGLVQAGGSLRLSCAASGSIFSRYTMAWYRQAPGKERELVARINSSGTSTYYADSVKGRFTISRDNAKNTVFLQMNSLKPEDTAVYYCARTSRHVRYDYWGQGTQVTVSS,low polyreactivity
17,QVQLVESGGGLVQAGGSLRLSCAASGSIFSRYTMGWYRQAPGKERELVARINSSGTSTYYADSVKGRFTISRDNAKITVYLQMNSLKPEDTAVYYCARTSRHVRYDYWGQGTQVTVSS,low polyreactivity
18,QVQLVESGGGLVQAGGSLRLSCAASGSIFSSNAMGWYRQAPGKDRELVASISWTGGNTYADSVKGRFTISRDNAKNTVYLQMNSLKPEDTAVYYCNAGRSWDYWYGYDYWGQGTQVTVSS,low polyreactivity
19,QVQLVESGGGLVQAGGSLRLSCAASGSIFSSNAMGWYRQAPGKERELVAAISSSGGSTYYADSVKGRFTISRDNAKNTVYLQKNSLKPEDTAVYYCATGKQVYGHYYWGQGTQVTVSS,low polyreactivity
20,QVQLVESGGGLVQAGGSLRLSCAASGSIFSSNAMGWYRQAPGKERELVAAITSSGTRTYYADSVKGRFTISRDNAKNTVYLQMNSLKPEDTAVYYCATRLRRSDHRYPYDYWGQGTQVTVSS,low polyreactivity
21,QVQLVESGGGLVQAGGSLRLSCAASGSIFSSYAMGWYRQAPGKERELVAAISQSGGDTYYADSVKGRFTISRDIAKNTVYLQMNSLKPEDTAVYYCAACVWYYPMDYWGQGTQGTVSS,low polyreactivity
